The record followed here is patent US20240229081.

The test system of this data set is Nla type I-C Cascade-Cas3 in E. coli (Neisseria lactamica). The experiment in a line: cell_activity. The conditions noted are these: PAM TTC; E. coli plasmid interference.

In turn, “Nla native CRISPR spacer 1 crRNA ; spacer 1 target with TTC PAM, plasmid” had an activity of 1000 fold.
